Measurements as given in patent US20240366776A1 (Hoffmann-La Roche, published 2024).
Numbering of substitutions follows the chain as printed.

B1: AF4387 (other)
heavy 1: APTSSSTKKTQLQLEHLLLDLQMILNGINNYKNPKLTDMLTFEFYMPKKATELKHLQCLERELKPLEEVLNLAQSKNFHLRPRDLISNINVIVLELKGSETTFMCEYADETATIVEFLNRWITFCQSIISTLTGGGGSGGGGSGGGGSGGGGSQVQLVQSGAEVKKPGASVKVSCKASGYTFTDYYMHWVRQAPGQGLEWMGIINPRAGYTSYALKFQGRVTMTRDTSTSTVYMELSSLRSEDTAVYYCTSGWDVWGQGTLVTVSSAKTTAPSVYPLAPVCGDTTGSSVTLGCLVKGYFPEPVTLTWNSGSLSSGVHTFPAVLQSDLYTLSSSVTVTSSTWPSQSITCNVAHPASSTKVDKKIEPRGPTIKPCPPCKCPAPNAAGGPSVFIFPPKIKDVLMISLSPIVTCVVVDVSEDDPDVQISWFVNNVEVHTAQTQTHREDYNSTLRVVSALPIQHQDWMSGKEFKCKVNNKDLGAPIERTISKPKGSVRAPQVYVLPPPEEEMTKKQVTLTCMVTDFMPEDIYVEWTNNGKTELNYKNTEPVLDSDGSYFMYSDLRVEKKNWVERNSYSCSVVHEGLHNHHTTESFSRTPGK
heavy 2: QVQLVQSGAEVKKPGASVKVSCKASGYTFTDYYMHWVRQAPGQGLEWMGIINPRAGYTSYALKFQGRVTMTRDTSTSTVYMELSSLRSEDTAVYYCTSGWDVWGQGTLVTVSSAKTTAPSVYPLAPVCGDTTGSSVTLGCLVKGYFPEPVTLTWNSGSLSSGVHTFPAVLQSDLYTLSSSVTVTSSTWPSQSITCNVAHPASSTKVDKKIEPRGPTIKPCPPCKCPAPNAAGGPSVFIFPPKIKDVLMISLSPIVTCVVVDVSEDDPDVQISWFVNNVEVHTAQTQTHREDYNSTLRVVSALPIQHQDWMSGKEFKCKVNNKDLGAPIERTISKPKGSVRAPQVYVLPPPEKEMTKKQVSLTCLVKDFMPEDIYVEWTNNGKTELNYKNTEPVLKSDGSYFMYSKLTVEKKNWVERNSYSCSVVHEGLHNHHTTKSFSRTPGGGGSGGGSHHHHHH
light: DIQMTQSPSSLSASVGDRVTITCRASQSISTWLAWYQQKPGKAPKLLIYAASSLDSGVPSRFSGSGSGTDFTLTISSLQPEDFATYYCQQSYSFPVTFGQGTKVEIKRADAAPTVSIFPPSSEQLTSGGASVVCFLNNFYPKDINVKWKIDGSERQNGVLNSWTDQDSKDSTYSMSSTLTLTKDEYERHNSYTCEATHKTSTSPIVKSFNRNEC
B2: AF4379 (other)
heavy: APTSSSTKKTQLQLEHLLLDLQMILNGINNYKNPKLTDMLTFEFYMPKKATELKHLQCLERELKPLEEVLNLAQSKNFHLRPRDLISNINVIVLELKGSETTFMCEYADETATIVEFLNRWITFCQSIISTLTGGGGSGGGGSGGGGSGGGGSQVQLVQSGAEVKKPGASVKVSCKASGDTFTRYYVHWVRQAPGQGLEWMGIINPSGGYASYAQKFQGRVTMTRDTSTSTVYMELSSLRSEDTAVYYCAAGLFIWGQGTLVTVSSAKTTAPSVYPLAPVCGDTTGSSVTLGCLVKGYFPEPVTLTWNSGSLSSGVHTFPAVLQSDLYTLSSSVTVTSSTWPSQSITCNVAHPASSTKVDKKIEPRGPTIKPCPPCKCPAPNAAGGPSVFIFPPKIKDVLMISLSPIVTCVVVDVSEDDPDVQISWFVNNVEVHTAQTQTHREDYNSTLRVVSALPIQHQDWMSGKEFKCKVNNKDLGAPIERTISKPKGSVRAPQVYVLPPPEEEMTKKQVTLTCMVTDFMPEDIYVEWTNNGKTELNYKNTEPVLDSDGSYFMYSKLRVEKKNWVERNSYSCSVVHEGLHNHHTTKSFSRTPGK
light: DIQMTQSPSSLSASVGDRVTITCRASQSIGRYLAWYQQKPGKAPKLLIYSASNLETGVPSRFSGSGSGTDFTLTISSLQPEDFATYYCQQYNSFPVTFGPGTKVDIKRADAAPTVSIFPPSSEQLTSGGASVVCFLNNFYPKDINVKWKIDGSERQNGVLNSWTDQDSKDSTYSMSSTLTLTKDEYERHNSYTCEATHKTSTSPIVKSFNRNEC
B3: AF4386 (other)
heavy 1: B2 heavy with K558D, K588E
heavy 2: QVQLVQSGAEVKKPGASVKVSCKASGDTFTRYYVHWVRQAPGQGLEWMGIINPSGGYASYAQKFQGRVTMTRDTSTSTVYMELSSLRSEDTAVYYCAAGLFIWGQGTLVTVSSAKTTAPSVYPLAPVCGDTTGSSVTLGCLVKGYFPEPVTLTWNSGSLSSGVHTFPAVLQSDLYTLSSSVTVTSSTWPSQSITCNVAHPASSTKVDKKIEPRGPTIKPCPPCKCPAPNAAGGPSVFIFPPKIKDVLMISLSPIVTCVVVDVSEDDPDVQISWFVNNVEVHTAQTQTHREDYNSTLRVVSALPIQHQDWMSGKEFKCKVNNKDLGAPIERTISKPKGSVRAPQVYVLPPPEKEMTKKQVSLTCLVKDFMPEDIYVEWTNNGKTELNYKNTEPVLKSDGSYFMYSKLTVEKKNWVERNSYSCSVVHEGLHNHHTTKSFSRTPGGGGSGGGSHHHHHH
light: B2 light
B4: AF4403 (other)
heavy 1: QVQLVESGGGVVQPGRSLRLDCKASGITFSNSGMHWVRQAPGKGLEWVAVIWYDGSKRYYADSVKGRFTISRDNSKNTLFLQMNSLRAEDTAVYYCATNDDYWGQGTLVTVSSAKTTAPSVYPLAPVCGDTTGSSVTLGCLVKGYFPEPVTLTWNSGSLSSGVHTFPAVLQSDLYTLSSSVTVTSSTWPSQSITCNVAHPASSTKVDKKIEPRGPTIKPCPPCKCPAPNAAGGPSVFIFPPKIKDVLMISLSPIVTCVVVDVSEDDPDVQISWFVNNVEVHTAQTQTHREDYNSTLRVVSALPIQHQDWMSGKEFKCKVNNKDLGAPIERTISKPKGSVRAPQVYVLPPPEEEMTKKQVTLTCMVTDFMPEDIYVEWTNNGKTELNYKNTEPVLDSDGSYFMYSDLRVEKKNWVERNSYSCSVVHEGLHNHHTTESFSRTPGGGGGSGGGGSGGGGSAPTSSSTKKTQLQLEHLLLDLQMILNGINNYKNPKLTDMLTFEFYMPKKATELKHLQCLERELKPLEEVLNLAQSKNFHLRPRDLISNINVIVLELKGSETTFMCEYADETATIVEFLNRWITFCQSIISTLT
heavy 2: QVQLVESGGGVVQPGRSLRLDCKASGITFSNSGMHWVRQAPGKGLEWVAVIWYDGSKRYYADSVKGRFTISRDNSKNTLFLQMNSLRAEDTAVYYCATNDDYWGQGTLVTVSSAKTTAPSVYPLAPVCGDTTGSSVTLGCLVKGYFPEPVTLTWNSGSLSSGVHTFPAVLQSDLYTLSSSVTVTSSTWPSQSITCNVAHPASSTKVDKKIEPRGPTIKPCPPCKCPAPNAAGGPSVFIFPPKIKDVLMISLSPIVTCVVVDVSEDDPDVQISWFVNNVEVHTAQTQTHREDYNSTLRVVSALPIQHQDWMSGKEFKCKVNNKDLGAPIERTISKPKGSVRAPQVYVLPPPEKEMTKKQVSLTCLVKDFMPEDIYVEWTNNGKTELNYKNTEPVLKSDGSYFMYSKLTVEKKNWVERNSYSCSVVHEGLHNHHTTKSFSRTPGGGGGSGGGGSGGGGSGGGGSQVQLVQSGAEVKKPGASVKVSCKASGDTFTRYYVHWVRQAPGQGLEWMGIINPSGGYASYAQKFQGRVTMTRDTSTSTVYMELSSLRSEDTAVYYCAAGLFIWGQGTLVTVSSASGGGGSGGGGSGGGGSHASDIQMTQSPSSLSASVGDRVTITCRASQSIGRYLAWYQQKPGKAPKLLIYSASNLETGVPSRFSGSGSGTDFTLTISSLQPEDFATYYCQQYNSFPVTFGPGTKVDIKGGGSGGGSHHHHHH
light: EIVLTQSPATLSLSPGERATLSCRASQSVSSYLAWYQQKPGQAPRLLIYDASNRATGIPARFSGSGSGTDFTLTISSLEPEDFAVYYCQQSSNWPRTFGQGTKVEIKRADAAPTVSIFPPSSEQLTSGGASVVCFLNNFYPKDINVKWKIDGSERQNGVLNSWTDQDSKDSTYSMSSTLTLTKDEYERHNSYTCEATHKTSTSPIVKSFNRNEC
B5: AF4404 (other)
heavy 1: B4 heavy 1
heavy 2: QVQLVESGGGVVQPGRSLRLDCKASGITFSNSGMHWVRQAPGKGLEWVAVIWYDGSKRYYADSVKGRFTISRDNSKNTLFLQMNSLRAEDTAVYYCATNDDYWGQGTLVTVSSAKTTAPSVYPLAPVCGDTTGSSVTLGCLVKGYFPEPVTLTWNSGSLSSGVHTFPAVLQSDLYTLSSSVTVTSSTWPSQSITCNVAHPASSTKVDKKIEPRGPTIKPCPPCKCPAPNAAGGPSVFIFPPKIKDVLMISLSPIVTCVVVDVSEDDPDVQISWFVNNVEVHTAQTQTHREDYNSTLRVVSALPIQHQDWMSGKEFKCKVNNKDLGAPIERTISKPKGSVRAPQVYVLPPPEKEMTKKQVSLTCLVKDFMPEDIYVEWTNNGKTELNYKNTEPVLKSDGSYFMYSKLTVEKKNWVERNSYSCSVVHEGLHNHHTTKSFSRTPGGGGGSGGGGSGGGGSGGGGSQVQLVQSGAEVKKPGASVKVSCKASGYTFTDYYMHWVRQAPGQGLEWMGIINPRAGYTSYALKFQGRVTMTRDTSTSTVYMELSSLRSEDTAVYYCTSGWDVWGQGTLVTVSSASGGGGSGGGGSGGGGSHASDIQMTQSPSSLSASVGDRVTITCRASQSISTWLAWYQQKPGKAPKLLIYAASSLDSGVPSRFSGSGSGTDFTLTISSLQPEDFATYYCQQSYSFPVTFGQGTKVEIKGGGSGGGSHHHHHH
light: B4 light

Biological target: PD-1-Fc (UniProt Q15116 25-167, limits assumed)
Sequence (Q15116 25-167 limits assumed): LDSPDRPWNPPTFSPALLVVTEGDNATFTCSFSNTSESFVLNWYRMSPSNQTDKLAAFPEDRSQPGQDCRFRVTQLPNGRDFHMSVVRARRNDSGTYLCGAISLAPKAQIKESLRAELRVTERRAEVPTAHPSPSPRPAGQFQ
Test: cell-based or functional assay

Going from B1 to B2, the “IL-2 activity EC50, HEK-Blue IL-2 reporter cells, IgG1 coated wells (control)” value falls from 419 pM to 62 pM (6.8-fold).

With B3 the “IL-2 activity EC50, HEK-Blue IL-2 reporter cells, IgG1 coated wells (control)” value was 1790 pM.

First: B1
Second: B2
The “IL-2 activity EC50, HEK-Blue IL-2 reporter cells, PD-1 coated wells” value (from here on “IL-2 activity EC50 … PD-1 coated wells”) of the first is 1.8-fold higher: 57 pM for the first, 31 pM for the second.

Going from B3 to B4, the “IL-2 activity EC50 … PD-1 coated wells” value falls from 50 pM to 31 pM (1.6-fold).

With B5 the “IL-2 activity EC50 … PD-1 coated wells” value was 26 pM.

B4 and B5 are within 1.5-fold of each other in “IL-2 activity EC50, HEK-Blue IL-2 reporter cells, control wells” value: 62 pM for the first, 64 pM for the second.
